Common to all, as to experiment: cell-based or functional assay
Test [1] concerns the target SARS-CoV-2 spike (S) protein of Omicron sublineage BA.2.75 (G446S) (SARS-CoV-2) (UniProt P0DTC2).
Test [2] addresses SARS-CoV-2 spike (S) protein of Omicron sublineage BJ.1 (R346T, V445P, G446S) (SARS-CoV-2) (UniProt P0DTC2).
The target in test [3] is SARS-CoV-2 spike (S) protein of Omicron sublineage BQ.1.1 (R346T, K444T, F486V) (SARS-CoV-2) (UniProt P0DTC2).
Test [4] deals with SARS-CoV-2 Omicron BA.4.6 spike protein (R346T, F486V) (SARS-CoV-2) (UniProt P0DTC2).
Test [5] concerns the target SARS-CoV-2 spike (S) protein, Omicron variant BA.1 (SARS-CoV-2) (UniProt P0DTC2).
The target in test [6] is SARS-CoV-2 spike protein, Alpha variant (B.1.1.7) (SARS-CoV-2).
Test [7] has as its target SARS-CoV-2 spike protein, Beta variant 1 (B.1.351 v1) (SARS-CoV-2).
The target of test [8] is SARS-CoV-2 spike protein, Delta variant (AY.1) (SARS-CoV-2).
For test [9], the target named is SARS-CoV-2 spike protein, Delta variant (B.1.617.2) (SARS-CoV-2).
The target of test [10] is SARS-CoV-2 spike protein, Gamma variant (P.1) (SARS-CoV-2).
Test [11] deals with SARS-CoV-2 spike (S) protein, Omicron variant BA.2 (SARS-CoV-2) (UniProt P0DTC2).
The target in test [12] is SARS-CoV-2 spike (S) protein, Omicron variant BA.2.12.1 (SARS-CoV-2) (UniProt P0DTC2).
The target of test [13] is SARS-CoV-2 spike protein, C.1.2 variant (SARS-CoV-2).
Test [14] deals with SARS-CoV-2 spike protein, Mu variant (B.1.621) (SARS-CoV-2).

For 8 substances, IC50, pseudovirus neutralization and IC80, pseudovirus neutralization results are on record in patent US20240109955A1.

Chain of A19-46.1 antibody (VH): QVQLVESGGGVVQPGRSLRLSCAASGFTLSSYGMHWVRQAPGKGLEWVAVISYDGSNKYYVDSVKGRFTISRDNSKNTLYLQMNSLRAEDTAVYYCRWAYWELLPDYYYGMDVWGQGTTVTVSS
Chain of A19-46.1 antibody (VL): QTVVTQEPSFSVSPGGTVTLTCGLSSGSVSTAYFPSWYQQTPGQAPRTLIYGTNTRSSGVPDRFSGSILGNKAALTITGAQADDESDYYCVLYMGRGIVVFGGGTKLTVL
Chain of MX492 (A19-46 x A23-58H/B1-182L) bispecific, tetravalent molecule with Fc (bispecific antibody) (chain): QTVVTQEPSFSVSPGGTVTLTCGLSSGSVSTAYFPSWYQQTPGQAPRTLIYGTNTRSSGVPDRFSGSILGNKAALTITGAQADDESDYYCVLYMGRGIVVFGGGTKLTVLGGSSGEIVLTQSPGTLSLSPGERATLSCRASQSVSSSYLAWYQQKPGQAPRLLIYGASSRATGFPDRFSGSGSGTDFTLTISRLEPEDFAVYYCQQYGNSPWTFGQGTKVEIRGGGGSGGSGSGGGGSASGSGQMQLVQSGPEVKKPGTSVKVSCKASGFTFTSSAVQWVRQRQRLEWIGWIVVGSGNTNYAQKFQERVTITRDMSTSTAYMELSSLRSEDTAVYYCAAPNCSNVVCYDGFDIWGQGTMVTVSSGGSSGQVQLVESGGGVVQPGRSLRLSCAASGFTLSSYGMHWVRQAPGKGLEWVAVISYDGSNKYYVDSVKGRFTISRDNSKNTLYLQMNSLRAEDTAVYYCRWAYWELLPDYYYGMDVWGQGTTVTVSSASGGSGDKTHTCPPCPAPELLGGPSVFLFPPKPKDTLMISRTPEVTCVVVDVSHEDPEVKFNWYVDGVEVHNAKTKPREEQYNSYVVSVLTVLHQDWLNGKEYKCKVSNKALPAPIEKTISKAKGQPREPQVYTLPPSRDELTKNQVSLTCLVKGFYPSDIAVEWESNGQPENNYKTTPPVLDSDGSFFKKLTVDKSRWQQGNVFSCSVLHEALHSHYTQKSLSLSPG
Chain of MX413 (A19-61 x A23-58H/B1-182L) bispecific, tetravalent molecule with Fc (bispecific antibody) (chain): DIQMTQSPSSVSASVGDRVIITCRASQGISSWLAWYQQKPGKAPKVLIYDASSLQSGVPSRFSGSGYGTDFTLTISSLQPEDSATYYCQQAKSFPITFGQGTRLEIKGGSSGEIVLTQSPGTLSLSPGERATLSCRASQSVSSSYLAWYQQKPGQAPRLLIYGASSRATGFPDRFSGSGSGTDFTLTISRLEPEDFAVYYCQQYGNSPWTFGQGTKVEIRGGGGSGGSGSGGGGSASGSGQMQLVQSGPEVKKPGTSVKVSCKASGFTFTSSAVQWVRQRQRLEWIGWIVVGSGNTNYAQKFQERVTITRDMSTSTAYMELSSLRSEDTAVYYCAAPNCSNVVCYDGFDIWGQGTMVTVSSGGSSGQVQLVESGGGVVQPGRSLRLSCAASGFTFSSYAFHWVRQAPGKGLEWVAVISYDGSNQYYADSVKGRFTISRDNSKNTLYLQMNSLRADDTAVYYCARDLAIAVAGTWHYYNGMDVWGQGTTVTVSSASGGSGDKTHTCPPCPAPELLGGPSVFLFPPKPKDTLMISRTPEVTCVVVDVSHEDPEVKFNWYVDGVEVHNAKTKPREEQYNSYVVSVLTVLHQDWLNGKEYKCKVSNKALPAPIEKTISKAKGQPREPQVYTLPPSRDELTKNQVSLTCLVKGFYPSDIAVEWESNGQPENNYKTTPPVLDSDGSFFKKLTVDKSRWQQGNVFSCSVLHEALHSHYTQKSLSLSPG
Chain of MX412 (A23-58H/B1-182L × A19-61) (bispecific antibody) (chain): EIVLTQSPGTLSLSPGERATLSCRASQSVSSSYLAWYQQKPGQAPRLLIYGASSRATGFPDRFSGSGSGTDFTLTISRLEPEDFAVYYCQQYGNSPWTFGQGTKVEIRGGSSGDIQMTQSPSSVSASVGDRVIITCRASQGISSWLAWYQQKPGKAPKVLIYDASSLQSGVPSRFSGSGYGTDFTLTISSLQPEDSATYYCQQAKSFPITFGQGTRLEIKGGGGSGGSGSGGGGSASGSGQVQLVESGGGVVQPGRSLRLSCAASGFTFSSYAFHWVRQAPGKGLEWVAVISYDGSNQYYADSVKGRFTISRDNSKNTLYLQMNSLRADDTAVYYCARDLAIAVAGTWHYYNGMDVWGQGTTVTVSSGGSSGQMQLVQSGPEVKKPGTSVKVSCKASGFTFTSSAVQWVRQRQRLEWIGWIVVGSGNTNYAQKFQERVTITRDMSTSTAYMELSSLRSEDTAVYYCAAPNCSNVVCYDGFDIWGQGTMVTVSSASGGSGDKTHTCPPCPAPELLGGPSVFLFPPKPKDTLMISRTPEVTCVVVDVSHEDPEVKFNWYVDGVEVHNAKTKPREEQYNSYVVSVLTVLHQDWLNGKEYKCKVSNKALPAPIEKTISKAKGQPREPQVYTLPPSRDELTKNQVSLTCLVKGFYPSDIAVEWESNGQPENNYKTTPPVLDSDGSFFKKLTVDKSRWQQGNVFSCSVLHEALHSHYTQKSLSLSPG
Chain of MX183 (A19-61 × B1-182) (bispecific antibody) (chain): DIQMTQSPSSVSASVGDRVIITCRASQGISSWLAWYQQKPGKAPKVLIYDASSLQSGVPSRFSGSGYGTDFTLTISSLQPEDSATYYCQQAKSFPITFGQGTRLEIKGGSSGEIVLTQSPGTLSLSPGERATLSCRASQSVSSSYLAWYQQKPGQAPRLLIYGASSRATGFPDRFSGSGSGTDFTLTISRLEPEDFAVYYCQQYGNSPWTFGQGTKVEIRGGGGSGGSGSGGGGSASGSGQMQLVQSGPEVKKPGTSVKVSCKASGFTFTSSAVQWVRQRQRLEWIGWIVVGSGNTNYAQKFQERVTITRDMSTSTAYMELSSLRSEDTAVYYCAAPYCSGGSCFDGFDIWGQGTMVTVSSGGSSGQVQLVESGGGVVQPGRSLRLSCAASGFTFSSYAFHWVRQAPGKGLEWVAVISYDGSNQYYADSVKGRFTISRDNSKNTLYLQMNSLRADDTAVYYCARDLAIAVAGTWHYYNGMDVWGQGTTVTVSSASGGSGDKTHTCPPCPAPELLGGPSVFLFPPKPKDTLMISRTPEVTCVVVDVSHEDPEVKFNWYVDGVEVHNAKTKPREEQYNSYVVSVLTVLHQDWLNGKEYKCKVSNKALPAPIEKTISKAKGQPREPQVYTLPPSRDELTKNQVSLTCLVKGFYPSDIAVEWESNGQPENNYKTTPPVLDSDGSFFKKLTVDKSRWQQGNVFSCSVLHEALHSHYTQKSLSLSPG

Turning to A19-46.1 antibody, the IC50, pseudovirus neutralization in test [1] was 148 nM; in [2] it was above 10000 nM; in test [3] it was above 10000 nM. The IC80, pseudovirus neutralization was 352 nM in test [1], above 10000 nM in test [2] and above 10000 nM in test [3].

Take A23-58H/B1-182L hybrid antibody: the IC50, pseudovirus neutralization in test [4] was above 10000 nM; in test [1] it was 5 nM; in test [2], 20 nM; in [3], above 10000 nM. In addition, the IC80, pseudovirus neutralization in test [4] is above 10000 nM; in [1] it was 35 nM; in test [2] it was 102 nM; in test [3] it was above 10000 nM.

Take “MX183 (A19-61 × B1-182) (bispecific antibody)”: the IC50, pseudovirus neutralization is above 66.7 nM in test [5]; 0.803 nM in [6]; 1.02 nM in test [7]; 0.542 nM in [8]; 0.23 nM in [9]; 0.43 nM in test [10]. The IC80, pseudovirus neutralization in test [5] was above 66.7 nM; in test [6], 5.66 nM; in test [7] it was 1.65 nM; in test [8] it was 1.04 nM; in test [9] it was 0.948 nM; in test [10], 2.27 nM.

With “MX413 (A19-61 x A23-58H/B1-182L) bispecific, tetravalent molecule with Fc (bispecific antibody)”, the IC50, pseudovirus neutralization was 21 nM in [1], 3210 nM in test [2] and above 10000 nM in [3]. Besides, the IC80, pseudovirus neutralization in test [1] was 71 nM; in [2] it was above 10000 nM; in test [3], above 10000 nM.

Consider “MX492 (A19-46 x A23-58H/B1-182L) bispecific, tetravalent molecule with Fc (bispecific antibody)”, for which the IC50, pseudovirus neutralization was 3 nM in test [1], 783 nM in test [2] and above 10000 nM in test [3]. In addition, the IC80, pseudovirus neutralization in test [1] is 10 nM; in test [2], 2010 nM; in test [3] it was above 10000 nM.

As for “bebtelovimab (LY1404, LY-CoV1404, LY3853133) (antibody)”, the IC50, pseudovirus neutralization in test [1] is 13 nM; in test [2] it was above 10000 nM; in test [3] it was above 10000 nM. Moreover, the figures for the IC80, pseudovirus neutralization in test [1], in [2] and in [3] were 86 nM, above 10000 nM and above 10000 nM, respectively.

As to A19-61.1 antibody, the IC50, pseudovirus neutralization in test [1], in test [2] and in test [3] was above 10000 nM throughout. The IC80, pseudovirus neutralization in [1], in [2] and in test [3] was above 10000 nM in each case.

Take “MX412 (A23-58H/B1-182L × A19-61) (bispecific antibody)”: the IC50, pseudovirus neutralization turned out to be 8.96 nM in [5]; 0.0304 nM in test [11]; 0.0615 nM in test [12]; 0.058 nM in test [6]; 0.0365 nM in test [7]; 0.014 nM in [13]. Moreover, the IC50, pseudovirus neutralization in test [9] was found to be 0.0279 nM; in test [10], 0.042 nM; in [14], 0.583 nM. Moreover, the IC80, pseudovirus neutralization was 31.8 nM in test [5]; 0.0803 nM in [11]; 0.178 nM in [12]; 0.143 nM in test [6]; 0.084 nM in test [7]; 0.0528 nM in test [13]. Moreover, the IC80, pseudovirus neutralization stood at 0.0625 nM in test [9], 0.0885 nM in test [10] and 1.78 nM in test [14].
